According to patent US9752119B2, “Substantially pure human retinal progenitor, forebrain progenitor, and retinal pigment epithelium cell cultures and methods of making the same” (Wisconsin Alumni Research Foundation, priority 2009, dated 2017):

B1: BMP4: recombinant BMP4, added to differentiating human ESC (protein, UniProt P12644 293-408, looked up)
Bone morphogenetic protein 4: SPKHHSQRARKKNKNCRRHSLYVDFSDVGWNDWIVAPPGYQAFYCHGDCPFPLADHLNSTNHAIVQTLVNSVNSSIPKACCVPTELSAISMLYLDEYDKVVLKNYQEMVVEGCGCR
B2: Noggin: recombinant Noggin, inhibitor of BMP signaling (protein, UniProt Q13253 28-232, looked up)
Noggin: QHYLHIRPAPSDNLPLVDLIEHPDPIFDPKEKDLNETLLRSLLGGHYDPGFMATSPPEDRPGGGGGAAGGAEDLAELDQLLRQRPSGAMPSEIKGLEFSEGLAQGKKQRLSKKLRRKLQMWLWSQTFCPVLYAWNDLGSRFWPRYVKVGSCFSKRSCSVPEGMVCKPSKSVHLTVLRWRCQRRGGQRCGWIPIQYPIISECKCSC
B3: Wnt3A: recombinant Wnt3a, added to differentiating human ESC (protein, UniProt P56704 19-352, looked up)
Protein Wnt-3a: SYPIWWSLAVGPQYSSLGSQPILCASIPGLVPKQLRFCRNYVEIMPSVAEGIKIGIQECQHQFRGRRWNCTTVHDSLAIFGPVLDKATRESAFVHAIASAGVAFAVTRSCAEGTAAICGCSSRHQGSPGKGWKWGGCSEDIEFGGMVSREFADARENRPDARSAMNRHNNEAGRQAIASHMHLKCKCHGLSGSCEVKTCWWSQPDFRAIGDFLKDKYDSASEMVVEKHRESRGWVETLRPRYTYFKVPTERDLVYYEASPNFCEPNPETGSFGTRDRTCNVSSHGIDGCDLLCCGRGHNARAERRREKCRCVFHWCCYVSCQECTRVYDVHTCK
B4: Activin: Activin-A added to vesicular neurosphere cultures to influence RPE fate (protein, UniProt P08476 311-426, looked up)
Inhibin beta A chain: GLECDGKVNICCKKQFFVSFKDIGWNDWIIAPSGYHANYCEGECPSHIAGTSGSSLSFHSTVINHYRMRGHSPFANLKSCCVPTKLRPMSMLYYDDGQNIIKKDIQNMIVEECGCS
modifications: Inhibin beta A chain
B5: Dkk1: recombinant Dkk1, inhibitor of Wnt signaling (protein, UniProt O94907 32-266, looked up)
Dickkopf-related protein 1: TLNSVLNSNAIKNLPPPLGGAAGHPGSAVSAAPGILYPGGNKYQTIDNYQPYPCAEDEECGTDEYCASPTRGGDAGVQICLACRKRRKRCMRHAMCCPGNYCKNGICVSSDQNHFRGEIEETITESFGNDHSTLDGYSRRTTLSSKMYHTKGQEGSVCLRSSDCASGLCCARHFWSKICKPVLKEGQVCTKHRRKGSHGLEIFQRCYCGEGLSCRIQKDHHQASNSSRLHTCQRH

Assays:
[1] = tested on: human ESC; experiment: Eye field specification from differentiating human ESC: Pax6 and Rx gene expression (RT-PCR/qPCR) and neuroepithelial colony formation; assay type: cell-based; conditions: for appearance of neuroepithelial colonies / expression of Pax6 and Rx: Wnt3A and BMP4 added together (100 ng/ml) over the first 10 days of differentiation; for appearance of neuroepithelial colonies: morphology at day 10; for expression of Pax6 and Rx: qPCR
Protocol: (1) Making human ESC aggregates: Human ESC were grown on irradiated MEFs to approximately 80% confluence in a 6-well plate. Upon reaching 80% confluence, the human ESC medium was aspirated off and 1 ml of dispase (1 mg/ml, Gibco #17105-041) solution was added to each well. After 5 minutes, the cells were examined for curling of human ESC colony edges, indicative of the colonies beginning to lift off of the plate. If noticeable curling was evident, the dispase solution was aspirated off of the plate and replaced with 1 ml of DMEM/F12 per well. The human ESC colonies were mechanically lifted from the plate by pipetting a few times with a 10 ml pipette. When all colonies were detached, the cells were transferred to a 15 ml conical tube and allowed to settle by gravity. After the aggregates had settled (˜5 minutes), the supernatant was aspirated and replaced with 10 ml of Embryoid Body (EB) medium, which contained DMEM/F12 (1:1) (Gibco #11330-065), 20% knockout serum replacement (Gibco #10828-028), 0.1 mM β-mercaptoethanol, 1 mM L-glutamine (Gibco #25030-081) and 1% MEM nonessential amino acids (Gibco #11140-050). The pellet of cells was resuspended by repeated pipetting 2-3 times with a 10 ml pipette, just enough to separate the individual aggregates while minimizing their dissociation. Aggregates were approximately 400 μm in diameter. These aggregates were then transferred to a T25 flask and placed in the incubator. The next day, the aggregates formed floating, sphere-like structures. (If significant attachment of human ESC and/or residual MEF cells was observed, the unattached aggregates were transferred to a new flask.) These cells were fed with fresh EB medium every day for the first 4 days.
(2) Differentiating to anterior neuroepithelial fate: The aggregates were then collected by settling in a 15 ml conical tube and washed once with 10 ml of DMEM/F12. Upon resettlement of the aggregates, the supernatant was removed and the aggregates were re-suspended in 10 ml of Neural Induction Medium (NIM) and transferred to a new T25 flask. NIM included DMEM/F12 (1:1) (Gibco #11330-065), 1% N2 supplement (Gibco #17502-048), 1% MEM nonessential amino acids (Gibco #11140-050), and 2 μg/ml heparin (Sigma #H-3149). Two days later, a 6-well plate was coated with laminin (20 μg/ml diluted in DMEM) and the coated plate was left in the incubator overnight. By this time, aggregates had become brighter and acquired clearly defined edges. The next day, approximately 50 aggregates were plated in each well of a 6 well plate. An additional 2 ml of fresh NIM was added to each well. The cells were then placed in the incubator, making sure the cells were distributed evenly in the plate by gently shaking the plate back and forth as well as side-to-side a few times. Within the first couple of days (by a total of 9 days), most aggregates attached to the laminin-coated surface. […]
RT-PCR experiments were done as follows to check gene expression: Total RNA was isolated from cell cultures from various stages of differentiation using the RNAeasy® kit (Qiagen) and treated with DNAse I. Reverse transcription was performed with the Superscript III RT-PCR kit (Invitrogen). […] For quantitative RT-PCR (qPCR), reactions were performed with Sybr Green Supermix (Applied Biosystems) and the Opticon 2 DNA Engine and Opticon Monitor 2.02 software (MJ Research). […]

[2] = tested on: human ESC cultures; experiment: Mitf and Chx10 gene expression (qPCR) in human ESC cultures treated during optic vesicle and optic cup stages; assay type: cell-based; conditions: SU5402 added days 16-40, measured at day 40
Protocol: The columnar rosette cells found in the center of these colonies were denser than those cells in the periphery, so they were easily dislodged by this pipetting technique, leaving the non-rosette cells attached to the plate. We took care not to break up the lifted colonies during this step. Detached colonies were collected in a 15 ml conical tube and spun in a centrifuge at 600 rpm for 1 minute to effectively pellet the detached colonies while leaving most single cells in suspension in the culture medium. The supernatant was then aspirated from the tube and the clusters were re-suspended in 10 ml of Retinal Differentiation Medium (RDM) and transferred to a new T25 flask. RDM included DMEM/F12 (3:1) supplemented with 2% B27. […] Within 3-5 days after detachment of the cells (19th-21st day of the differentiation), neurospheres readily adopted one of two major appearances. […]
RT-PCR experiments were done as follows to check gene expression: Total RNA was isolated from cell cultures from various stages of differentiation using the RNAeasy® kit (Qiagen) and treated with DNAse I. Reverse transcription was performed with the Superscript III RT-PCR kit (Invitrogen). […] For quantitative RT-PCR (qPCR), reactions were performed with Sybr Green Supermix (Applied Biosystems) and the Opticon 2 DNA Engine and Opticon Monitor 2.02 software (MJ Research). […] Quantitative RT-PCR primers were run for 40 cycles.

[3] = tested on: hiPSCs; experiment: Neural/retinal specification of hiPSCs after addition of BMP and Wnt inhibitors (immunocytochemistry, FACS); assay type: cell-based, human; conditions: for expression of Pax6: recombinant Dkk1 and Noggin added together from 2-4 days of differentiation, immunocytochemistry; for expression of Chx10: treatment with Dkk1 and Noggin together, after 20 days of differentiation, FACS
Protocol: Immunocytochemistry was done as follows to check protein expression: human ESC aggregates or neurospheres were plated onto poly-ornithine- and laminin-coated coverslips overnight to allow for attachment, and then fixed with 4% paraformaldehyde. Cells were then permeabilized in 0.2% Triton X-100 for 10 minutes. For Mitf immunocytochemistry, cells were incubated in ice-cold 90% methanol for 10 minutes as an additional permeabilization step. Labeled cells were visualized with either Alexafluor 488- or Cy3-conjugated secondary antibodies, and nuclei were counterstained with either Hoechst or To-Pro-3 nuclear dyes. Images were obtained from a Nikon TE600 fluorescent microscope equipped with a SPOT camera and software or from z-stacks of cell clusters obtained on a Nikon Cl Laser Scanning Confocal microscope.
FACS analysis was done as follows to quantify the percentage of cells acquiring expression of Pax6 and Rx: Cells were dissociated with either trypsin or Accutase® (Chem icon), washed with a fluorescence-activated cell sorting (FACS) buffer (PBS, 0.1% sodium azide, and 2% donkey serum), and fixed with 0.1% paraformaldehyde for 10 minutes. Cells were then permeabilized with ice-cold 90% methanol for 20 minutes and incubated overnight in primary antibodies at a concentration of 1 μg of antibody per 1 million cells in FACS buffer. Antibody information is found in Table 2. Immunostaining was then completed with either donkey-anti-mouse or donkey-anti-rabbit Alexa 488 secondary antibodies for 2 hours, after which cells were washed with FACS buffer, and then sorted with a Becton Dickinson FACSCaliber. Data retrieved from the sorting was analyzed with CellQuest Pro software (Becton Dickinson).
To test this hypothesis, inhibitors of BMP signaling (Noggin or Dorsomorphin) and Wnt signaling (Dkk-1 or XAV-939) were added to cultures from days 2 to 4 of differentiation, a timeframe that was shown in Example 1 to be prior to the onset of neural specification based on Pax6 and Rax expression. […] This was further confirmed through immunocytochemistry, where cells treated with BMP and Wnt inhibitors were more likely to express the neural transcription factors Pax6 and Sox1 as well as eye field transcription factors Lhx2 and Six6.

[4] = tested on: hiPSC-derived vesicular neurospheres; experiment: RPE specification from hiPSC-derived vesicular neurospheres in the presence of Activin (bright field microscopy, qPCR); assay type: cell-based, human
Protocol: RT-PCR experiments were done as follows to check gene expression: Total RNA was isolated from cell cultures from various stages of differentiation using the RNAeasy® kit (Qiagen) and treated with DNAse I. Reverse transcription was performed with the Superscript III RT-PCR kit (Invitrogen). PCR was performed with GoTaq PCR master mix (Promega) and subsequent PCR products were run on 2% agarose gels. For quantitative RT-PCR (qPCR), reactions were performed with Sybr Green Supermix (Applied Biosystems) and the Opticon 2 DNA Engine and Opticon Monitor 2.02 software (MJ Research). All primer sets listed were run for 30 cycles at an annealing temperature of 60° C. unless otherwise noted. Quantitative RT-PCR primers were run for 40 cycles.
Activin signaling has previously been implicated in this cell fate determination and as such, we sought to determine if Activin could influence these cells to adopt an RPE fate. […] Based on this feature, these aggregates could be manually isolated to generate highly enriched populations of RPE. When plated onto a laminin-coated substrate and in the presence of the mitogens FGF2 and EGF, these cells were capable of proliferation and outgrowth from the aggregate (FIG. 18D). […] Further maturation of these treated cells confirms that Activin signaling plays a role in the acquisition of an RPE fate at the expense of the neural retina, as Activin-treated cultures expressed RPE-specific genes such as RPE65 at higher levels than the untreated cells, whereas untreated cells expressed higher levels of genes associated with the neural retina including Brn3A (FIG. 18E-F).

Molecule | appearance of neuroepithelial colonies [1] | expression of Pax6 and Rx [1] | expression of Pax6 [3] | expression of Chx10 [3] | also measured
Cc1c[nH]c(/C=C2\C(=O)Nc3ccccc32)c1CCC(=O)O [SU5402] | – | – | – | – | Pax6 and Rx expression ([1]; 10 μM SU5402, day 10 of differentiation, RT-PCR): complete loss; increase in Mitf gene expression [2]: 11.8 fold; reduction of Chx10 expression [2]: 15.9 fold
B1 | abolished | abolished | – | – | –
B2 | – | – | restored | increased | –
B3 | abolished | abolished | – | – | –
B4 | – | – | – | – | development of pigmented, RPE-like phenotype ([4]; Activin added upon isolation of vesicular neurospheres until a total of 40 days of differentiation): a subset of the neurospheres was capable of developing a pigmented phenotype; expression of neural retinal-associated genes ([4]; Activin-A treated versus untreated vesicular spheres, qPCR): lower levels; expression of RPE-specific genes such as RPE65 ([4]; Activin-treated versus untreated cultures, qPCR): higher levels
B5 | – | – | restored | increased | –
